US20220119513A1 (ZOETIS SERVICES, published 2022)
Where two headings read alike, the source gives them in different places.

B1: fel04H09-17 (antibody, V domains shown)
VH: QVLLVQSGAEVRRPGASVKIFCKASGYSFTSSWMNWLRQAPAQGFEWMGQIYPGDGDTNYNGKFKGRLTLTADTSTDTAYMELSSLRSADTAVYYCARHYDGSTDYWGHGTIVTVSS
VL: AITMTQSPGSLAGSPGQQVTMNCRASENIYSNLAWYQQKPGQHPKLLIYAATNLADGVPDRFSGSGSGTDFTLTISNLQAEDVASYYCQHFWGTPYTFGGGT
B2: fel04H09-24 (antibody, V domains shown)
VH: QVLLVQSGAEVRKPGASVKIFCKASGYSFTSSWMNWLRQAPEQGLEWMGQIYPGDGDTNYNGKFKGRLTLTADTSTNTAYMELSSLRSADTAMYYCARHYDGSTDYWGQGALVTVSS
VL: DIVMTQTPLSLPVTPGEPASISCRASENIYSNLAWYLQKPGQSPRLLIYAATNLADGVPSRFSGSGSGTDFTLRISSVEADDVGVYYCQHFWGTPYTFGQGT
B3: H1chimK (antibody)
heavy: EVQLVQSGAEVKKPGASVKVSCKTSGYTFITYWMNWVRQAPGAGLDWMGQIFPASGSTNYNEMFEGRVTLTADTSTSTAYMELSSLRAGDIAVYYCARGDGNYALDAMDYWGQGTLVTASTTAPSVFPLAPSCGSTSGSTVALACLVSGYFPEPVTVSWNSGSLTSGVHTFPSVLQSSGLYSLSSMVTVPSSRWPSETFTCNVAHPASKTKVDKPVPKRENGRVPRPPDCPKCPAPEAAGAPSVFIFPPKPKDTLLIARTPEVTCVVVDLDPEDPEVQISWFVDGKQMQTAKTQPREEQFNGTYRVVSVLPIGHQDWLKGKQFTCKVNNKALPSPIERTISKARGQAHQPSVYVLPPSREELSKNTVSLTCLIKDFFPPDIDVEWQSNGQQEPESKYRTTPPQLDEDGSYFLYSKLSVDKSRWQRGDTFICAVMHEALHNHYTQESLSHSPGK
light: DIVLTQTPASLAVSLGQRATISCRASESVDSYGNSFMHWYQQKSGQPPKLLIYLASNLESGVPARFSGSGSRTDFTLTIDPVEADDAATYYCQQNNEDPLTFGAGTKRNDAQPAVYLFQPSPDQLHTGSASVVCLLNSFYPKDINVKWKVDGVIQDTGIQESVTEQDKDSTYSLSSTLTMSSTEYLSHELYSCEITHKSLPSTLIKSFQRSEC
notes: also called canHcLb-VH1/chiHcLb-VL
B4: H2chimK (antibody)
heavy: EVQLVQSAAEVKKPGASVKVSCKTSGYSFTTYWMNWVQQAPGKGLDWMGQIFPASGSTNYNEMFEGRVTLTVDTSTSTAYMELSSLRAEDAAVYYCARGDGNYALDAMDYWGQGTLVTASTTAPSVFPLAPSCGSTSGSTVALACLVSGYFPEPVTVSWNSGSLTSGVHTFPSVLQSSGLYSLSSMVTVPSSRWPSETFTCNVAHPASKTKVDKPVPKRENGRVPRPPDCPKCPAPEAAGAPSVFIFPPKPKDTLLIARTPEVTCVVVDLDPEDPEVQISWFVDGKQMQTAKTQPREEQFNGTYRVVSVLPIGHQDWLKGKQFTCKVNNKALPSPIERTISKARGQAHQPSVYVLPPSREELSKNTVSLTCLIKDFFPPDIDVEWQSNGQQEPESKYRTTPPQLDEDGSYFLYSKLSVDKSRWQRGDTFICAVMHEALHNHYTQESLSHSPGK
light: DIVLTQTPASLAVSLGQRATISCRASESVDSYGNSFMHWYQQKSGQPPKLLIYLASNLESGVPARFSGSGSRTDFTLTIDPVEADDAATYYCQQNNEDPLTFGAGTKRNDAQPAVYLFQPSPDQLHTGSASVVCLLNSFYPKDINVKWKVDGVIQDTGIQESVTEQDKDSTYSLSSTLTMSSTEYLSHELYSCEITHKSLPSTLIKSFQRSEC
notes: also called canHcLb-VH2/chiHcLb-VL
B5: Can04H09 VH3/VL4 (antibody, V domains shown)
VH: EVQLVQSAAEVKKPGASVKVSCKTSGYTFTSSWMNWVQQAPGAGLDWMGQIYPGDGDTNYNGKFKGRVTLTADTSTSTAYMELSSLRAEDTAVYYCARHYDGSTDYWGQGTLVTVSS
VL: EIVMTQSPASLSLSQGEKVTITCRASENIYSNLAWYQQRPGQAPKLLIYAATNLADGVPSRFSGSGSGTDFSLTISSLEPEDVAVYYCQHFWGTPYTFGQGTK
B6: Can04H09 VH3/VL1 (antibody, V domains shown)
VH: EVQLVQSAAEVKKPGASVKVSCKTSGYTFTSSWMNWVQQAPGAGLDWMGQIYPGDGDTNYNGKFKGRVTLTADTSTSTAYMELSSLRAEDTAVYYCARHYDGSTDYWGQGTLVTVSS
VL: DIVMTQNPLSLSVSPGETASISCRASENIYSNLAWFRQKPGQSPQRLIYAATNLADGVPDRFSGSGSGTDFTLRISRVEADDTGVYYCQHFWGTPYTFGQGTK
B7: Can04H09 VH1/VL3 (antibody, V domains shown)
VH: EVQLVQSGAEVKKPGASVKVSCKTSGYTFISSWMNWVRQAPGAGLDWMGQIYPGDGDTNYNGKFKGRVTLTADTSTSTAYMELSSLRAGDIAVYYCARHYDGSTDYWGQGTLVTVSS
VL: EIVMTQSPASLSLSQEEKVTITCRASENIYSNLAWYQQKPGQAPKLLIYAATNLADGVPSRFSGSGSGTDFSFTISSLEPEDVAVYYCQHFWGTPYTFGQGTK
B8: Can04H09 VH2/VL4 (antibody, V domains shown)
VH: EVQLVQSAAEVKKPGASVKVSCKTSGYSFTSSWMNWVQQAPGKGLDWMGQIYPGDGDTNYNGKFKGRVTLTADKSTSTAYMELSSLRSEDAAVYYCARHYDGSTDYWGQGTLVTVSS
VL: EIVMTQSPASLSLSQGEKVTITCRASENIYSNLAWYQQRPGQAPKLLIYAATNLADGVPSRFSGSGSGTDFSLTISSLEPEDVAVYYCQHFWGTPYTFGQGTK
B9: Can04H09 VH3/VL3 (antibody, V domains shown)
VH: EVQLVQSAAEVKKPGASVKVSCKTSGYTFTSSWMNWVQQAPGAGLDWMGQIYPGDGDTNYNGKFKGRVTLTADTSTSTAYMELSSLRAEDTAVYYCARHYDGSTDYWGQGTLVTVSS
VL: EIVMTQSPASLSLSQEEKVTITCRASENIYSNLAWYQQKPGQAPKLLIYAATNLADGVPSRFSGSGSGTDFSFTISSLEPEDVAVYYCQHFWGTPYTFGQGTK
B10: Chimera-SL501-VH/CanSL501-VL-hybrid (antibody, V domains shown)
VH: EVQLVESGGGVVQPGRSLRLSCAASGFTFSSYGMHWVRQAPGKELEWVAVISYDGSIKYYADSVKGRFTISRDNSKNTLYLQMNSLRAEDTAVYYCARTGEYSGYDTDPQYSWGQGTTVTVSS
VL: EIVLTQSPSSLSASVGDRVTITCRASQGIGDDLGWYQQKPGQAPKLLIYGTSTLQSGVPSRFSGSGSGTDFSFTISSLEPEDVAVYYCLQDSNYPLTFGGGTK
notes: constant regions not restated
B11: Can-SL501_VH1/CanSL501-VL-hybrid (antibody, V domains shown)
VH: EVQLVESGGDLVKPGGSLRLSCVASGFTFSSYGMHWVRQAPGKGLQWVAVISYDGSIKYYTDAVKGRFTISRDNARNTVYLQMNSLRAEDTAVYYCAKTGEYSGYDTDPQYSWGQGTLVTVSS
VL: EIVLTQSPSSLSASVGDRVTITCRASQGIGDDLGWYQQKPGQAPKLLIYGTSTLQSGVPSRFSGSGSGTDFSFTISSLEPEDVAVYYCLQDSNYPLTFGGGTK
notes: constant regions not restated

Legend:
[1] = biological target: T1, TGFβ3 (R&D Systems) (Homo sapiens (Human), UniProt P10600 301-412, Active TGFβ3 is a disulfide-linked homodimer of this chain; one copy is given.); experiment: cell-based or functional assay
T1 sequence: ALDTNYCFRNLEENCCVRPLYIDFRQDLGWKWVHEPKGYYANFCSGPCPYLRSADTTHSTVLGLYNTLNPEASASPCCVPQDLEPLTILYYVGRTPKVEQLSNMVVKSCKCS

[2] = biological target: TGFβ1 (R&D Systems); experiment: cell-based or functional assay
[3] = biological target: T1, TGFβ3 (R&D Systems); experiment: SPR full titration
[4] = biological target: T2, TGFβ2 (R&D Systems); experiment: SPR full titration
T2 construct: also called TGFB2
T2 sequence (P61812 303-414, species assumed, looked up): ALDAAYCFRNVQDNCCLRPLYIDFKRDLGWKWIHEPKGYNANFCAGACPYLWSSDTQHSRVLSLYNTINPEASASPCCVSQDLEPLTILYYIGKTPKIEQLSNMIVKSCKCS

[5] = biological target: T3, TGFβ1 (R&D Systems); experiment: SPR full titration
T3 construct: also called TGFB1

[6] = biological target: canine TGFβ1 (canine, UniProt P54831 279-390, limits assumed); experiment: SPR, TGFβ on chip
Excerpt: (§1) To avoid affinity differences associated with differential surface preparation that can occur when immobilizing antibodies to surfaces, TGFβ1, TGFβ2, and TGFβ3 (R&D Systems) were directly conjugated to the individual surface. Immobilization was obtained by amine coupling […] using N-hydroxysuccinimide (NHS)/1-Ethyl-3-(3-dimethylaminopropyl) carbodiimide (EDC) chemistry. Chips were quenched with ethanolamine and the affinity with which all candidate mAbs bound to the immobilized TGFβ was evaluated. All curves were fit to a 1:1 model. Affinities <10⁻¹¹ are below the lower limit of quantitation of detection for the instrument.

[7] = biological target: T4, canine TGFβ3 (canine, UniProt A0A8I3S1P1 346-457); experiment: SPR, TGFβ on chip
T4 sequence: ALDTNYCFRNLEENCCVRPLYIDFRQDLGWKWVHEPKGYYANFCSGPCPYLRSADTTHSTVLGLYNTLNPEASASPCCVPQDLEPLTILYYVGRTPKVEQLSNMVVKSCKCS
Excerpt: as §1

[8] = biological target: T5, canine TGFβ2 (canine, UniProt A0A8I3PZZ6 331-442); experiment: SPR, TGFβ on chip
T5 sequence: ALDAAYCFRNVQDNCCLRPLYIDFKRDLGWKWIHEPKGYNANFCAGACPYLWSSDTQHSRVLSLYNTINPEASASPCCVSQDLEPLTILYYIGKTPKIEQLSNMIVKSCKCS
Excerpt: as §1

[9] = biological target: T1, TGFβ3 (R&D Systems); experiment: cell-based or functional assay; remark: listed apart in the source
[10] = biological target: T3, TGFβ1 (R&D Systems); experiment: cell-based or functional assay; remark: listed apart in the source
[11] = biological target: T4, canine TGFβ3; experiment: SPR
[12] = biological target: T5, canine TGFβ2; experiment: SPR
[13] = biological target: T3, TGFβ1 (R&D Systems); experiment: SPR full titration; remark: listed apart in the source

canine TGFβ1, sequence (P54831 279-390 limits assumed): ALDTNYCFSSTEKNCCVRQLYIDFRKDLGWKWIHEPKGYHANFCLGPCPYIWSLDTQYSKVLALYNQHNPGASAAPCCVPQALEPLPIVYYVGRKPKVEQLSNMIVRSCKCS
T3 sequence (P01137 279-390): as the sequence (P54831 279-390 limits assumed) above

| Binder | Kd [6] | Kd [7] | Kd [8] | CMVIC pSmad-3, IC50 [9] | CMVIC pSmad-3, IC50 [10] | further results |
| --- | --- | --- | --- | --- | --- | --- |
| B1 | – | – | – | – | – | CMVIC pSmad-3, IC50 [1]: 39.9 nM; CRFK pSmad-3, IC50 [1]: 370 nM; CMVIC pSmad-3, IC50 [2]: 0.89 nM; CRFK pSmad-3, IC50 [2]: 0.73 nM |
| B2 | – | – | – | – | – | CRFK pSmad-3, IC50 [1]: 30.1 nM; CRFK pSmad-3, IC50 [2]: 0.5 nM |
| B3 | – | – | – | – | – | Kd [3]: 1.03 nM; Kd [4]: 0.683 nM; Kd [5]: 6.52 nM |
| B4 | – | – | – | – | – | Kd [3]: 2.26 nM; Kd [4]: 6.62 nM; Kd [5]: 16.3 nM |
| B5 | 1.38 nM | 6.06 nM | 32.1 nM | 52.8 nM | 0.74 nM | – |
| B6 | 3980 nM | – | – | – | – | binding result [11]: no binding; binding result [12]: no binding |
| B7 | 2.43 nM | 6.52 nM | 32 nM | 467 nM | 0.66 nM | – |
| B8 | 1.42 nM | 6.03 nM | 32.9 nM | 69.5 nM | 0.84 nM | – |
| B9 | 2.79 nM | 9.08 nM | 48.8 nM | 72.8 nM | 1.18 nM | – |
| B10 | – | – | – | – | – | Kd [13]: 0.0428 nM |
| B11 | – | – | – | – | – | Kd [13]: 4.01 nM |
